From article PMC3563628, “Prevalence, Specificity and Determinants of Lipid-Interacting PDZ Domains from an In-Cell Screen and In Vitro Binding Experiments” (PLoS ONE, 2013)
Like-named read-outs stand apart in the source and are kept apart here. Values belong to the molecule of their own block, whether it stands above or below them.

Key:
[1] = tested on: eYFP-S1PDZ1-FYVE in MCF-7 cells; assay: Pharmacological treatment, localization of eYFP-S1PDZ1-FYVE; format: cell-based; conditions: wortmannin 500 nM or LY294002 50 µM for 30 min, YM201636 800 nM for 2 h
[2] = tested on: eYFP-S1PDZ1-MAGI3_3 and eYFP-S1PDZ1-IL16_1 in MCF-7 cells; assay: Pharmacological treatment, peroxisomal enrichment of eYFP-S1PDZ1-MAGI3_3 and eYFP-S1PDZ1-IL16_1; format: cell-based; conditions: wortmannin 500 nM, LY294002 50 µM, ionomycin 10 µM
[3] = tested on: eYFP-S1PDZ1-CASK in MCF-7 cells; assay: Pharmacological treatment, plasma membrane localization of eYFP-S1PDZ1-CASK; format: cell-based
[4] = tested on: eYFP-S1PDZ1-MPDZ_7 in MCF-7 cells; assay: Pharmacological treatment, plasma membrane localization of eYFP-S1PDZ1-MPDZ_7; format: cell-based; conditions: ionomycin 10 µM
CASK/I517W = molecular target: T1, CASK/I517W (human, UniProt O14936 489-564); assay: other fluorescence titration; equilibrium titration of peptide into Trp-engineered PDZ domain kept constant at 3 µM, followed by intrinsic tryptophan fluorescence; 25°C, 25 mM HEPES, 150 mM NaCl, pH 7.2, 1 mM beta-mercaptoethanol; conditions: both partners purified
T1 chain: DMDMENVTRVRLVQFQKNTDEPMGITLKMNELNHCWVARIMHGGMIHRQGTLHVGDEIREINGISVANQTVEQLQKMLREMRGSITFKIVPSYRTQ

[5] = molecular target: C-terminal peptide of usher (FTDTHL); assay: Equilibrium peptide binding titration followed by intrinsic tryptophan fluorescence; conditions: for Kd: Y167W mutation introduced as fluorescent probe, protein 3 µM, 25°C, pH 7.2
Description: Given the overall low PtdInsPs specificities, and often modest PtdInsPs affinities, it is unlikely that PtdInsPs bindings alone target the PDZ domains to their defined subcellular compartments. Plausibly, peptide interactions are also involved in controlling the subcellular targeting. To address the interplay between PtdInsPs and peptide-binding we chose DFNB31_1 and CASK as models, taking two of the PDZ domains with well-defined cognate peptides. Cognate peptide ligands were the C-terminal peptides of usher (FTDTHL) for DFNB31_1 [50] and the TKEFYA peptide of syndecan-2 for CASK [51]. We measured the PDZ-peptide affinities by a fluorescence-based approach (Fig. 4E), by engineering Trp into the PDZ scaffolds and following the interactions by changes in intrinsic fluorescence, a strategy previously established for other PDZ domains (KD-values: DFNB31_1/Y167W for FTDTHL 46±6 µM; CASK/I157W for TKEFYA 280±20 µM), [52]. We then determined the apparent PtdIns(4,5)P2 affinities in presence of a (close to) saturating concentration of respective peptide (1 mM). The FTDTHL peptide appeared to compete for DFNB31_1-PtdIns(4,5)P2 interactions (KD ^PtdIns(4,5)P2 in presence of peptide >30 µM, Fig. 4F), which might indicate overlapping binding sites. […] We have previously reported on competitive binding by peptide and PtdIns(4,5)P2 with CASK [13]. However, in these experiments the peptide was linked to sepharose beads and PtdIns(4,5)P2 was present on micelles, which made it more difficult for the PDZ domain to simultaneously interact with the two ligands.
(§1) Spectrofluorimetric measurements were performed at 25°C in 25 mM HEPES, 150 mM NaCl, pH 7.2 and 1 mM beta-mercaptoethanol in a Carry Eclipse Spectrofluorimeter (Varian). The peptides corresponded to the C-termini of syndecan-2 (TKEFYA) and usher (FTDTHL) and were of high purity (purity >95%, GeneCust), and the experiment were performed and analyzed as described previously. Urea induced equilibrium unfolding experiments were performed using 1 µM of proteins (excitation 280 nm emission 320–380 nm) and the data fitted by a standard two-state model.

[6] = SPR equilibrium binding of his-tagged PDZ domains to PtdIns(4,5)P2 liposomes; conditions: for Kd: SPR equilibrium analysis, 5% PtdIns(4,5)P2 in DOPC liposomes, 25°C, pH 7.2, read-out: KD app PtdIns(4,5)P2
[7] = Urea induced equilibrium unfolding followed by fluorescence; format: physicochemical; conditions: Y167W background, ΔGD-N mut − ΔGD-N wt
Description: as §1
The effects of the mutations on the stability were calculated by ΔΔGD −N = ΔGD −Nmut − ΔGD −Nwt, where ΔΔGD-N is the difference between the free energies of unfolding upon mutation.

DFNB31_1/Y167W = molecular target: T2, DFNB31_1/Y167W (human, UniProt Q9P202 136-224, Y167W); assay: other fluorescence titration; equilibrium titration of peptide into Trp-engineered PDZ domain kept constant at 3 µM, followed by intrinsic tryptophan fluorescence; 25°C, 25 mM HEPES, 150 mM NaCl, pH 7.2, 1 mM beta-mercaptoethanol; conditions: both partners purified
T2 construct: first PDZ domain of human DFNB31 (whirlin); predicted PDZ domain (Interpro, PFAM, SMART) with ten amino acids of the original protein added on each side; also called first PDZ domain of DFNB31 with a Trp probe
T2 sequence: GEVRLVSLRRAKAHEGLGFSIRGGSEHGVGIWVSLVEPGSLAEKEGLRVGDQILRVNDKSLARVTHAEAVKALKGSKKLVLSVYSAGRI

[8] = molecular target: T3, DFNB31_1/R144E (with Y167W) (human, UniProt Q9P202 136-224, R144E | Y167W); assay: as above; conditions: both partners purified
T3 construct: first PDZ domain of human DFNB31 (whirlin); predicted PDZ domain with ten amino acids added on each side
T3 sequence: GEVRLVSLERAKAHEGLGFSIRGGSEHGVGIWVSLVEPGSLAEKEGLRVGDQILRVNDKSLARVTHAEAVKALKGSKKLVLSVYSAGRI

[9] = molecular target: T4, DFNB31_1/R145E (with Y167W) (human, UniProt Q9P202 136-224, R145E | Y167W); assay: as above; conditions: both partners purified
T4 construct: first PDZ domain of human DFNB31 (whirlin); predicted PDZ domain with ten amino acids added on each side
T4 sequence: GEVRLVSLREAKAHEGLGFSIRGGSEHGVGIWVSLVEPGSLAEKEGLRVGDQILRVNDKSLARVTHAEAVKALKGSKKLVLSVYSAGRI

[10] = molecular target: T5, DFNB31_1/K206E (with Y167W) (human, UniProt Q9P202 136-224, K206E | Y167W); assay: as above; conditions: both partners purified
T5 construct: first PDZ domain of human DFNB31 (whirlin); predicted PDZ domain with ten amino acids added on each side
T5 sequence: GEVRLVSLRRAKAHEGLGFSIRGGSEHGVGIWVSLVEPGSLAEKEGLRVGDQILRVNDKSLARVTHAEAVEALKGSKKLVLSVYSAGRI

[11] = molecular target: T6, DFNB31_1/K209E (with Y167W) (human, UniProt Q9P202 136-224, K209E | Y167W); assay: as above; conditions: both partners purified
T6 construct: first PDZ domain of human DFNB31 (whirlin); predicted PDZ domain with ten amino acids added on each side; The text once prints R209E for this mutant; also called R209E (once in the text)
T6 sequence: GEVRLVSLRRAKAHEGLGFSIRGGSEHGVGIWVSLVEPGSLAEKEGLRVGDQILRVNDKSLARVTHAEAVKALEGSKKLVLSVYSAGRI

[12] = molecular target: T7, DFNB31_1/K212E (with Y167W) (human, UniProt Q9P202 136-224, K212E | Y167W); assay: as above; conditions: both partners purified
T7 construct: first PDZ domain of human DFNB31 (whirlin); predicted PDZ domain with ten amino acids added on each side
T7 sequence: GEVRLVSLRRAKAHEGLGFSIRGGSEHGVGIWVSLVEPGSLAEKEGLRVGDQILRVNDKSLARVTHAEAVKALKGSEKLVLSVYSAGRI

[13] = MCF-7, ionomycin 10 µM, PAO 100 µM, wortmannin 500 nM

Molecule: O=c1cc(N2CCOCC2)oc2c(-c3ccccc3)cccc12 [LY294002, 2-(4-morpholinyl)-8-phenyl-4H-1-benzopyran-4-one]
localization of eYFP-S1PDZ1-FYVE upon treatment [1]: lost
peroxisomal enrichments of eYFP-S1PDZ1-MAGI3_3 and eYFP-S1PDZ1-IL16_1 upon treatment [2]: did not alter

Molecule: Nc1ccc(C(=O)Nc2cccc(-c3nc(N4CCOCC4)c4oc5ncccc5c4n3)c2)cn1 [YM201636]
localization of eYFP-S1PDZ1-FYVE upon treatment [1]: accumulation of eYFP-S1PDZ1-FYVE at the limiting membranes

Molecule: CCCCOc1cc(C(=O)NCCN(CC)CC)c2ccccc2n1 [dibucaine]
plasma membrane localization of eYFP-S1PDZ1-CASK upon treatment [3, 13]: failed to release

Molecule: C[C@H](CCC(=O)O)C[C@H](C)C[C@H](C)C(=O)/C=C(\O)[C@H](C)C[C@H](C)C/C=C/[C@@H](C)[C@@H](O)[C@@H](C)[C@@H](O)C[C@@H]1CC[C@@](C)([C@H]2CC[C@@](C)([C@@H](C)O)O2)O1 [ionomycin]
plasma membrane localization of eYFP-S1PDZ1-CASK upon treatment [3]: loss of membrane localization
plasma membrane localization of eYFP-S1PDZ1-MPDZ_7 upon treatment [4]: not
peroxisomal enrichments of eYFP-S1PDZ1-MAGI3_3 and eYFP-S1PDZ1-IL16_1 upon treatment [2]: did not alter

Molecule: COC[C@H]1OC(=O)c2coc3c2[C@@]1(C)C1=C(C3=O)[C@@H]2CCC(=O)[C@@]2(C)C[C@H]1OC(C)=O [wortmannin]
localization of eYFP-S1PDZ1-FYVE upon treatment [1]: lost
plasma membrane localization of eYFP-S1PDZ1-CASK upon treatment [3, 13]: failed to release
peroxisomal enrichments of eYFP-S1PDZ1-MAGI3_3 and eYFP-S1PDZ1-IL16_1 upon treatment [2]: did not alter

Kd (CASK/I517W): 280 ± 20 µM
B1: C-terminal peptide of syndecan-2 (TKEFYA) (peptide)
peptide: TKEFYA
notes: C-terminus of syndecan-2; last six residues; also called TKEFYA peptide of syndecan-2; source: synthetic peptide, bought: GeneCust (purity >95%)

Kd [5]: 46 ± 6 µM
B2: DFNB31_1/Y167W: DFNB31_1 with Y167W mutation as fluorescent probe (protein)
chain: GEVRLVSLRRAKAHEGLGFSIRGGSEHGVGIWVSLVEPGSLAEKEGLRVGDQILRVNDKSLARVTHAEAVKALKGSKKLVLSVYSAGRI
modifications: left off: His6, N-terminal, state not stated
notes: DFNB31_1 with Y167W mutation as fluorescent probe

Kd [6]: > 20 µM
Kd [5]: 220 ± 40 µM
B3: DFNB31_1/K212E: DFNB31_1 PDZ domain mutant K212E (protein)
chain: GEVRLVSLRRAKAHEGLGFSIRGGSEHGVGIWVSLVEPGSLAEKEGLRVGDQILRVNDKSLARVTHAEAVKALKGSEKLVLSVYSAGRI
modifications: left off: His6, N-terminal, state not stated
ΔΔGD-N [7]: 1.2 ± 0.1 kcal/mol

Kd [6]: > 20 µM
Kd [5]: 82 ± 3 µM
B4: DFNB31_1/R144E: DFNB31_1 PDZ domain mutant R144E (protein)
chain: GEVRLVSLERAKAHEGLGFSIRGGSEHGVGIWVSLVEPGSLAEKEGLRVGDQILRVNDKSLARVTHAEAVKALKGSKKLVLSVYSAGRI
modifications: left off: His6, N-terminal, state not stated
ΔΔGD-N [7]: -0.65 ± 0.05 kcal/mol

Kd [6]: > 20 µM
Kd [5]: 175 ± 15 µM
B5: DFNB31_1/K209E: DFNB31_1 PDZ domain mutant K209E (protein)
chain: GEVRLVSLRRAKAHEGLGFSIRGGSEHGVGIWVSLVEPGSLAEKEGLRVGDQILRVNDKSLARVTHAEAVKALEGSKKLVLSVYSAGRI
modifications: left off: His6, N-terminal, state not stated
ΔΔGD-N [7]: -0.15 ± 0.01 kcal/mol

Kd [6]: 15 ± 5 µM
decrease in PtdIns(4,5)P2 binding upon mutation ([6]; versus wild type DFNB31_1): 2 fold
Kd [5]: 71 ± 8 µM
B6: DFNB31_1/R145E: DFNB31_1 PDZ domain mutant R145E (protein)
chain: GEVRLVSLREAKAHEGLGFSIRGGSEHGVGIWVSLVEPGSLAEKEGLRVGDQILRVNDKSLARVTHAEAVKALKGSKKLVLSVYSAGRI
modifications: left off: His6, N-terminal, state not stated
ΔΔGD-N [7]: -0.53 ± 0.05 kcal/mol

Kd [6]: 8.2 ± 2 µM
Kd [5]: 111 ± 8 µM
decrease in peptide binding affinity upon mutation ([5]; versus DFNB31_1 (Y167W background)): 2 fold
B7: DFNB31_1/K206E: DFNB31_1 PDZ domain mutant K206E (protein)
chain: GEVRLVSLRRAKAHEGLGFSIRGGSEHGVGIWVSLVEPGSLAEKEGLRVGDQILRVNDKSLARVTHAEAVEALKGSKKLVLSVYSAGRI
modifications: left off: His6, N-terminal, state not stated
ΔΔGD-N [7]: 0.41 ± 0.03 kcal/mol

Kd (DFNB31_1/Y167W): 46 ± 6 µM
Kd [8]: 82 ± 3 µM
Kd [9]: 71 ± 8 µM
Kd [10]: 111 ± 8 µM
Kd [11]: 175 ± 15 µM
Kd [12]: 220 ± 40 µM
B8: C-terminal peptide of usher (FTDTHL) (peptide)
peptide: FTDTHL
notes: last six residues; also called FTDTHL peptide; source: synthetic peptide, bought: GeneCust (purity >95%)
